# In PMC5726015, “Selection, characterization, and thermal stabilization of llama single domain antibodies towards Ebola virus glycoprotein” (Microbial Cell Factories, 2017):
# B1: R2A1 (VHH)
# VHH: EVQLQASGGGLVQARGSLQLSCAAPGRPVRTYTMGWFRQAPGKEREFVAANNWRGTRYAGSVRGRFSISRDNSKNTVYLQMNSLKPEDTAVYYCACAVTADLLLSGNYFRGDDYDYWGQGTQVTVS
# B2: R2E4 (VHH)
# VHH: EVQLQASGGGLVQAGGSLQLSCAAPGRPVRTYTMGWFRQAPGKEREFVAANNWRGTRYAGSVRGRFSISRDNSKNTVYLQMNSLKPEDTAVYYCACAVTADLLLSGNYFRGDDYDYWGQGTQVTVS
# B3: R3H8 (VHH)
# VHH: EVQLQASGGGLVQAGGSLQLSCAAPGHPVRTYTMGWFRQAPGKEREFVAANNWRGTRYAGSVRGRFSISRDNSKNTVYLQMNSLKPEDTAVYYCACAVTADLLLSGNYFRGDDYDYWGQGTQVTVS
# B4: R2B4 (VHH)
# VHH: EVQLQASGGGLVQAGGSLQLSCAAPGRPVRTYTMGWFRQAPGKEREFVAANNWRGTRYAGSVRGRFSISRDNSKNTVYLQMNSLKPEDTAVYYCACAETADLLLSGNYFRGDDYDYWGQGTQVTVS
# B5: R3G10 (VHH)
# VHH: EVQLQASGGGSVQAGGSLQLSCAAPGRPVRTYTMGWFRQAPGKEREFVAANNWRGTRYAGSVRGRFSTSRDNSKNTVYLQMNSLKPEDTAVYYCACAVTADLLLSGNYFRGDDYDYWGQGTQVTVS
# B6: R3C11 (VHH)
# VHH: DVQLQASGGGLVQAGGSLQLSCAAPGRPVRTYTMGWFRQAPGEEREFVAANNWRGTRYAGSVRGRFSVSRDNSKNTVYLQMNSLKPEDTAVYYCACAVTADLLLSGNYYRGDDYDYWGLGTQVTVS
# B7: R2E6 (VHH)
# VHH: DVQLQASGGGLVQAGGSLQLSCAAPGRPVRTYTMGWFRQAPGMEREFVAANNWRGTRHAGSVRGRFSISRDNSKNTVYLQMNSLKPEDTAVYYCACAVTADLLLSGNYFRGDDYDYWGQGTQVTVS
# B8: R3B7 (VHH)
# VHH: DVQLQASGGGLVQTGGSLRLACAGSGRSFNNYGMGWFRQAPGKERQFVAAISGNDHTTHYSDSVKGRFTISRDNAKSTVYLQMNSLKPEDTAVYYCAADRLGSFFFPRASPSDYGYWGQGTQVTVS
# B9: R3F12 (VHH)
# VHH: DVQLQASGGGLVQAGGSLRLSCAASSGTFSSYTMGWFRQAPGKERELVARLSQSLTTLYADSVKGRFTISRDNAENTVYLQMNSLKPEDTGVYYCAAHPGTYGSAWLISPHDYAYWGQGAQVTVS
# B10: R2H1 (VHH)
# VHH: EVLLQASGGGLVQPGGSLRLSCAASGLIFSINVMGWYRQTPGKQRELVASISRDDSTKYADSVKGRFTISRDNAKNTVYLQMNSLKPEDTAVYYCNTQTEGPVADWGTSHYDYWGQGTQVTVS
# B11: R2H11 (VHH)
# VHH: EVQLQASGGGLVQAGGSTRLSCAGSGSIFSINAMGWYRQTPEKQRELVATISSSGSTKYGDSVKGRFTISRDNAKNTVYLQMNSLKPEDTAVYYCNTQTAGPVADWGTSHYDYWGQGVQVTVS
# B12: R2D10 (VHH)
# VHH: EVQLQASGGGLVEPGGPLRLSCAVSGINFNINHWGWYRQAPGKQREWVATIAIGGATDYADSLKGRFTISRDNMKNTVYLQMNSLRPEDTAVYYCNGVGSKWSDRWGQGTQVTVS
# B13: R2G2 (VHH)
# VHH: EVQLQASGGGLVEPGGSLRLSCAVSGINFNINHWGWYRQAPGKQREWVATIAIGGATDYADSLKGRFTISRDNMKNTVYLQMNSLRPEDTAVYYCNGVGSKWSDRWGQGTQVTVS
# B14: R3F8 (VHH)
# VHH: EVQLQASGGGLVEPGGSLRLSCAVSGINFNINHWGWYRQAPGKQREWVATIAIGGATDYADSVKGRFTISRDNMKNTVYLQMNSLRPEDTAVYYCNGVGSKWSDRWGQGTQVTVS
# B15: R2C8 (VHH)
# VHH: EVQLQASGGGLVEPGGSLRLSCAVSGINFNINHWGWYRQAPGKQREWVATIAIGSATDYADSLKGRFAISRDNMKNTVYLQMNSLRPEDTAVYYCNGVGSKWSDRWDQGTQVTVS
# B16: EBOV-GP-G6-neg+ (VHH)
# VHH: DVQLVESGGGLVQAGGSLRISCAASGGALSDYNMGWFRQAPGKEREFVCVVTWSGGSTRYADSVNGRFTCSRDNAKNTVYLQMNSLKPEDTAVYYCAAAPLTPFQSLGDMKAYNYWGQGTQVTVSS
# notes: also called Bt-sdAb-neg+
# B17: EBOV-GP-H7-neg+ (VHH)
# VHH: DVQLVESGGGLVQAGGSLRLSCAASSGTFSSYTMGWFRQAPGKERELVCRLSQSLTTLYADSVKGRFTCSRDNAENTVYLQMNSLKPEDTGVYYCAAHPGTYGSAWLISPHDYAYWGQGTQVTVSS
# notes: also called EBOV-H7-neg+; Bt-sdAb-neg+
# B18: EBOV-GP-A8-neg+ (VHH)
# VHH: EVQLVESGGGLVQAGDSLQLSCAAPGRPVRTYTMGWFRQAPGKEREFVCANNWRGTRYAGSVRGRFSCSRDNSKNTVYLQMNSLKPEDTAVYYCACAVTADLLLSGNYFRGDDYDYWGQGTQVTVSS
# B19: EBOV-GP-A8-fneg+ (VHH)
# VHH: EVQLVESGGGLVQAGDSLQLSCAAPGRPVRTYTMGWFRQAPGKEREFVCANNWRGTRYAGSVRGRFSCSRDNSKNTVYLQMNSLKPEDTAVYYCASAVTADLLLSGNYFRGDDYDYWGQGTQVTVSS
# notes: also called Bt-sdAb-neg+
# B20: EBOV-GP-E7 (VHH)
# VHH: EVQLQASGGGLVQPRGSLRLSCAASGSIFSINAMGWYRQTPEKQRELVATISSSGSTKYGDSVKGRFTISRDNAKNTVYLQMNSLKPEDTAVYYCNTQTAGLVADWGTSHYDYWGQGVQVTVS
# B21: EBOV-GP-A8 (VHH)
# VHH: EVQLQASGGGLAQAGGSLQLSCAAPGRPVRTYTMGWFRQAPGKEREFVAANNWRGTRYAGSVRGRFSISRDNSKNTVYLQMNSLKPEDTAVYYCACAVTADLLLSGNYFRGDDYDYWGQGTQVTVS
# notes: also called Bt-EBOV-GP-A8
# B22: EBOV-GP-D1 (VHH)
# VHH: EVQLQASGGGSVPPGGSLRLSCTASLRAFSTYTMGWFRQAPGKEREFVAASNWRGTDFHDSVRGRFIISRDNTEKTVDLQMNSLKPEDTAIYYCAADGSTWLKRSDYSYWGQGTQVTVS
# B23: EBOV-GP-B5 (VHH)
# VHH: EVQLQASGGGLVQAGGSLRLSCTASLRAFSTYTMGWFRQAPGKEREFVAASNWRGTDFHDSVKGRFIISRDNTKKTVDLQMNSLKPEDTAIYYCAADGSTWLKRSDYSYWGQGTQVTVS
# B24: EBOV-GP-C12 (VHH)
# VHH: EVQLQASGGGLVQPGGSLRLSCTASGSIFSINAMGWYRQTPRKERELVAAISEGGSTKYGDSVKGRFTISRDFAKNTQMVYLQMNSLKAEDTAVYYCKAQTEGPIADWGTSQYEYWGQGTQVTVS
# B25: EBOV-GP-B11 (VHH)
# VHH: EVQLQASGGGLVQTGGSLRLACAGSGRSFNNYGMGWFRQAPGKERQFVAAISGNDHTTHYSDSVKGRFTISRDNAKTTVYLQMNSLKPEDTAVYYCAADRLGSFFFPRASPSDYGYWGQGTQVTVS
# B26: EBOV-GP-G6 (VHH)
# VHH: DVQLQASGGGLVQAGGSLRISCAASGGALSDYNMGWFRQAPGKEREFVAVVTWSGGSTRYADSVNGRFTISRDNAKNTVYLQMNSLKPEDTAVYYCAAAPLTPFQSLGDMKAYNYWGQGTQVTVS
# B27: EBOV-GP-H7 (VHH)
# VHH: DVQLQASGGGLVQAGGSLRLSCAASSGTFSSYTMGWFRQAPGKERELVARLSQSLTTLYADSVKGRFTISRDNAENTVYLQMNSLKPEDTGVYYCAAHPGTYGSAWLISPHDYAYWGQGTQVTVS
# Molecular target: Recombinant EBOV GP without transmembrane domain (Zaire ebolavirus, strain of GP not …, UniProt Q05320)
# Test: not given
# Conditions: not given
# Target sequence in this assay (Q05320 33-501, chain 1 of 2): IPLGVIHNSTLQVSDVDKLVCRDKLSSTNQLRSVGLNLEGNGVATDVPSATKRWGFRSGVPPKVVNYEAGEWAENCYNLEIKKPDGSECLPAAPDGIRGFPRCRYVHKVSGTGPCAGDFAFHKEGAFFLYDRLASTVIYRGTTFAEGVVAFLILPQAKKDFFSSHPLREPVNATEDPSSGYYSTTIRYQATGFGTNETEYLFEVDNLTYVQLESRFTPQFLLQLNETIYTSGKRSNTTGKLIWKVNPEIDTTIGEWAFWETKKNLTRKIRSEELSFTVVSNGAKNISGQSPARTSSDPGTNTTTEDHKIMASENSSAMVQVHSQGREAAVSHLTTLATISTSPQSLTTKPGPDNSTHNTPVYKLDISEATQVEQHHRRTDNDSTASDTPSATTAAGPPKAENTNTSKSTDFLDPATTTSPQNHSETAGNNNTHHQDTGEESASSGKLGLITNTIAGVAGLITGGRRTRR
# Target sequence in this assay (O11457 502-650, chain 2 of 2, further chain): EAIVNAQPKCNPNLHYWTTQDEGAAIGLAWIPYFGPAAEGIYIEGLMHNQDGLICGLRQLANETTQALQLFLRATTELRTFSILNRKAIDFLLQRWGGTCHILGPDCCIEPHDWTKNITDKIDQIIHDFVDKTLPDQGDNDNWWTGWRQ
row,Binder,binding result
1,B1,binds
2,B2,binds
3,B3,binds
4,B4,binds
5,B5,binds
6,B6,binds
7,B7,binds
8,B8,binds
9,B9,binds
10,B10,binds
11,B11,binds
12,B12,binds
13,B13,binds
14,B14,binds
15,B15,binds

# Molecular target: T1, Recombinant EBOV GP without transmembrane domain (Zaire ebolavirus, strain of GP not …, UniProt Q05320)
# T1 construct: also called recombinant GP; EBOV rGPdTM; source: bought: IBT Bioservices
# Test: SPR
# Conditions: both partners purified
# Target sequence in this assay (Q05320 whole entry, looked up, the tested form may be a part): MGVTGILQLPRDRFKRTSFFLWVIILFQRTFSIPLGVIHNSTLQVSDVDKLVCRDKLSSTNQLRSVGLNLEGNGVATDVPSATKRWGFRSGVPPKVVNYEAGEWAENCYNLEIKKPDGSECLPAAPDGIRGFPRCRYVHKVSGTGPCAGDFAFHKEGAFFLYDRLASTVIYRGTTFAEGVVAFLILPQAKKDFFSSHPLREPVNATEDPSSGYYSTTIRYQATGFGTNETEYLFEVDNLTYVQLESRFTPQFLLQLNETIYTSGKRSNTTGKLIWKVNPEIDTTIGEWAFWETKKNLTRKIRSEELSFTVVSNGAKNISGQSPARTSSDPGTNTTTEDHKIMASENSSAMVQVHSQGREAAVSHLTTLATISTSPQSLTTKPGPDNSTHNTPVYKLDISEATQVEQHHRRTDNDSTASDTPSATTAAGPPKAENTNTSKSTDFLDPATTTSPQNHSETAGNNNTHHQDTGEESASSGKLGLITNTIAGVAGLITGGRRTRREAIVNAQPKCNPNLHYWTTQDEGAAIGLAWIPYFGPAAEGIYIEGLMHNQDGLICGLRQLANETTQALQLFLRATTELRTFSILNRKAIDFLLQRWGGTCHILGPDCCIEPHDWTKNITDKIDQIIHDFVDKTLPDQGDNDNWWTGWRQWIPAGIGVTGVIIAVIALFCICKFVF
Binder,Kd,koff,kon
B16,44 nM,0.00015 s⁻¹,3500 M⁻¹ s⁻¹
B17,40 nM,0.0014 s⁻¹,35000 M⁻¹ s⁻¹
B18,0.95 nM,5.8e-05 s⁻¹,61000 M⁻¹ s⁻¹
B19,0.69 nM,9.1e-05 s⁻¹,130000 M⁻¹ s⁻¹

# Molecular target: T1, Recombinant EBOV GP without …
# Test: SPR
# Conditions: both partners purified
# Remark: another data set of the same source
# T1 sequence (Q05320 whole entry, looked up, the tested form may be a part): as above
Binder,Kd,koff,kon
B20,34 nM,0.00011 s⁻¹,3500 M⁻¹ s⁻¹
B21,2.3 nM,7.2e-05 s⁻¹,31000 M⁻¹ s⁻¹
B22,11 nM,0.00033 s⁻¹,30000 M⁻¹ s⁻¹
B23,11 nM,0.00037 s⁻¹,34000 M⁻¹ s⁻¹
B24,26.8 nM,8.71e-05 s⁻¹,3280 M⁻¹ s⁻¹
B25,35.9 nM,0.00321 s⁻¹,89800 M⁻¹ s⁻¹
B26,2 nM,0.00015 s⁻¹,70000 M⁻¹ s⁻¹
B27,17 nM,0.0003 s⁻¹,17000 M⁻¹ s⁻¹
